Values of other authors as cited in publication PMC7561547.
pKd: −log10 of the molar value.

Target: Her2 (Homo sapiens) (UniProt P04626)

For trastuzumab, the pKd is listed as 10.00.
